What all share (experiment): cell-based or functional assay
For test [1], the target named is Hemagglutinin of A/Milan/UHSR1/2009 (H1N1) (Influenza A virus A/Milan/UHSR1/2009 …).
Test [2] has as its target Hemagglutinin of A/WS/33 (H1N1) (Influenza A virus A/WS/33 (H1N1), UniProt P03454 18-565).
Test [3] concerns the target Hemagglutinin of A/Mal/302/54 (H1N1) (Influenza A virus A/Mal/302/54 (H1N1)).
Test [4] has as its target Hemagglutinin of A/NC/20/99 (H1N1) (Influenza A virus A/NC/20/99 (H1N1)).
Test [5] addresses Hemagglutinin of A/Swine/Parma/1/97 (H1N1) (Influenza A virus A/Swine/Parma/1/97 …).
Test [6] deals with A/PR/8/34 (H1N1) hemagglutinin (HA), wild type (Influenza A virus A/PR/8/34 (H1N1), UniProt P03452 18-565).
Test [7] addresses Hemagglutinin of A/Hong Kong/8/68 (H3N2) (Influenza A virus A/Hong Kong/8/68 …).
The target of test [8] is Hemagglutinin of A/Victoria/3/75 (H3N2) (Influenza A virus A/Victoria/3/75 (H3N2), UniProt P03435 17-567).
The target of test [9] is Hemagglutinin of A/Port Chalmers/1/73 (H3N2) (Influenza A virus A/Port Chalmers/1/73 …).
For test [10], the target named is Hemagglutinin of A/Wisconsin/67/2005 (H3N2) (Influenza A virus A/Wisconsin/67/2005 …).
Test [11] addresses H3N2 HA (A/Aichi/2/68), wild type (Influenza A virus A/Aichi/2/68 (H3N2), UniProt Q91MA7 17-566).

B1: Fab PN-SIA28 (Fab, V domains shown)
VH: LEESGGGVVQPGRSLRLSCAASGFPFSSYGMHWVRQAPGKGLEWVAGVSYDGSYKYYADSVKGRFTISRDSSKSTLYLQMNSLRPEDTAVYYCARPSAIFGIYIILNGLDVWGQGTTVTVSS
VL: ELTQSPSSVSASVGDRVTITCRATQGISSWLAWYQQKPGKPPKLLIFGASSLQSGVPSRFSGSGSGTDFTLTISSLQPEDFATYFCQQAHSFPLTFGGGTKVEIK
Turning to B1, the “IC50, micro-neutralization assay on MDCK cells” value (“IC50, micro-neutralization assay” for short) in test [1] turned out to be 0.3 µg/mL; in [2], 2.9 µg/mL; in [3] it was 0.8 µg/mL; in test [4], 7 µg/mL; in test [5] it was 3.9 µg/mL; in test [6], 2 µg/mL. For the same molecule, the “IC50, micro-neutralization assay” value in test [7] was 20 µg/mL; in test [8], over 20 µg/mL; in [9] it was 13.2 µg/mL; in [10], over 20 µg/mL; in test [11], 20 µg/mL.

B2: IgG PN-SIA28 (antibody, V domains shown)
VH: LEESGGGVVQPGRSLRLSCAASGFPFSSYGMHWVRQAPGKGLEWVAGVSYDGSYKYYADSVKGRFTISRDSSKSTLYLQMNSLRPEDTAVYYCARPSAIFGIYIILNGLDVWGQGTTVTVSS
VL: ELTQSPSSVSASVGDRVTITCRATQGISSWLAWYQQKPGKPPKLLIFGASSLQSGVPSRFSGSGSGTDFTLTISSLQPEDFATYFCQQAHSFPLTFGGGTKVEIK
For the molecule B2, the “IC50, micro-neutralization assay” value in [1] worked out at 0.2 µg/mL; in test [2], 1.3 µg/mL; in [3], 0.64 µg/mL; in test [5] it was 2 µg/mL; in [6], 1.2 µg/mL; in test [7], 0.8 µg/mL. Further, the figures for the “IC50, micro-neutralization assay” value in test [8], in test [9] and in test [11] were 1.2 µg/mL, 1.8 µg/mL and 0.6 µg/mL, respectively.

These data come from patent US20130022608A1 (POMONA RICERCA S R L, published 2013).
